The supplement of paper PMC10567573

B1: TMEM192 (parent)
chain: LWILHLLLECYIQYHHSKIRNRGY
B2: TNXB (parent)
chain: FSEIRETSAKVNWMPPPSRADSFK

Variants of: B1
Assay: protein stability index of a GFP-peptide fusion (GPS, HEK-293T) (PSI 1-6); higher = more stable
Conditions: c terminus: a fixed tail appended
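Also: lentivirally expressed fusions sorted by FACS into six bins by GFP to DsRed ratio, PSI derived from sequencing read proportions per bin multiplied by bin number.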

Variant | protein stability index
LWILHLLLECYIQYHHSKIRNRGR [Y24R] | 2.31
LWILHLLLECYIQYHHSKIRNRGP [Y24P] | 2.52
LWILHLLLECYIQYHHSKIRNRGT [Y24T] | 1.12
LWILHLLLECYIQYHHSKIRNRGV [Y24V] | 2.69
LWILHLLLECYIQYHHSKIRNRGS [Y24S] | 2.3
LWILHLLLECYIQYHHSKIRNRGQ [Y24Q] | 1.57

Variants of: B2
Assay: as above
Conditions: c terminus: a fixed tail appended

Variant | protein stability index
FSEIRETSAKVNWMPPPSRTDSFK [A20T] | 2.8
FSEIRETSAKVNWMPPPSRHDSFK [A20H] | 3.45
FSEIRETSAKVNWMPPPSRPDSFK [A20P] | 3.13
FSEIRETSAKVNWMPPPSRDDSFK [A20D] | 3.88
FSEIRETSAKVNWMPPPSRYDSFK [A20Y] | 2.93
FSEIRETSAKVNWMPPPSRSDSFK [A20S] | 3.5
FSEIRETSAKVNWMPPPSRWDSFK [A20W] | 2.92
FSEIRETSAKVNWMPPPSRQDSFK [A20Q] | 3.27
FSEIRETSAKVNWMPPPSREDSFK [A20E] | 3.6
FSEIRETSAKVNWMPPPSRGDSFK [A20G] | 3.24
FSEIRETSAKVNWMPPPSRKDSFK [A20K] | 3.8
FSEIRETSAKVNWMPPPSRADSFT [K24T] | 3.37
FSEIRETSAKVNWMPPPSRADSFC [K24C] | 2.94
FSEIRETSAKVNWMPPPSRADSFN [K24N] | 3.43
FSEIRETSAKVNWMPPPSRADSFP [K24P] | 3.14
FSEIRETSAKVNWMPPPSRADSFA [K24A] | 2.92
FSEIRETSAKVNWMPPPSRADSFD [K24D] | 3.41
FSEIRETSAKVNWMPPPSRADSFY [K24Y] | 2.64
FSEIRETSAKVNWMPPPSPADSFK [R19P] | 3.7
FSEIRETSAKVNWMPPPSIADSFK [R19I] | 3.12
FSEIRETSAKVNWMPPPSTADSFK [R19T] | 3.71
FSEIRETSAKVNWMPPPSSADSFK [R19S] | 3.73

Variant | protein stability index
FSEIRETSAKVNWMPPPSFADSFK [R19F] | 2.49
FSEIRETSAKVNWMYPPSRADSFK [P15Y] | 2.22
FSEIRETSAKVNWMRPPSRADSFK [P15R] | 3.21
FSEIRETSAKVNWMVPPSRADSFK [P15V] | 3.48
FSEIRETSAKVNWMQPPSRADSFK [P15Q] | 3.36
FSEIRETSAKVNWMMPPSRADSFK [P15M] | 3.27
FSEIRETSAKVNWMLPPSRADSFK [P15L] | 3.21
FSETRETSAKVNWMPPPSRADSFK [I4T] | 4.29
FSEKRETSAKVNWMPPPSRADSFK [I4K] | 3.72
FSEARETSAKVNWMPPPSRADSFK [I4A] | 3.76
FSEHRETSAKVNWMPPPSRADSFK [I4H] | 4.14
FSEERETSAKVNWMPPPSRADSFK [I4E] | 4.3
FSEDRETSAKVNWMPPPSRADSFK [I4D] | 3.99
FSERRETSAKVNWMPPPSRADSFK [I4R] | 3
FEEIRETSAKVNWMPPPSRADSFK [S2E] | 3.98
FKEIRETSAKVNWMPPPSRADSFK [S2K] | 3.49
FREIRETSAKVNWMPPPSRADSFK [S2R] | 3.2
FTEIRETSAKVNWMPPPSRADSFK [S2T] | 2.67
FWEIRETSAKVNWMPPPSRADSFK [S2W] | 2.37
FIEIRETSAKVNWMPPPSRADSFK [S2I] | 2.17
FVEIRETSAKVNWMPPPSRADSFK [S2V] | 1.9
FSEIRETSAKVNGMPPPSRADSFK [W13G] | 4.15

Variant | protein stability index
FSEIRETSAKVNNMPPPSRADSFK [W13N] | 4.49
FSEIRETSAKVNFMPPPSRADSFK [W13F] | 3.57
FSEIRETSAKVNAMPPPSRADSFK [W13A] | 4.11
FSEIRETSAKVNQMPPPSRADSFK [W13Q] | 4.23
FSEIRETSAKVNVMPPPSRADSFK [W13V] | 4.17
FSEIRETSAKVNYMPPPSRADSFK [W13Y] | 4.06
FSEIREASAKVNWMPPPSRADSFK [T7A] | 3.23
FSEIRENSAKVNWMPPPSRADSFK [T7N] | 3.37
FSEIRERSAKVNWMPPPSRADSFK [T7R] | 3.3
FSEIREQSAKVNWMPPPSRADSFK [T7Q] | 3.38
FSEIRECSAKVNWMPPPSRADSFK [T7C] | 3.24
FSEIREGSAKVNWMPPPSRADSFK [T7G] | 3.14
FSEIRETSAKVAWMPPPSRADSFK [N12A] | 2.14
FSEIRETSAKVGWMPPPSRADSFK [N12G] | 3.35
FSEIRETSAKVMWMPPPSRADSFK [N12M] | 2.04
FSEIRETSAKVVWMPPPSRADSFK [N12V] | 1.95
FSEIRETSAKVPWMPPPSRADSFK [N12P] | 3.17
FSEIRETSAKVEWMPPPSRADSFK [N12E] | 3.46
FSEIRETSAKVFWMPPPSRADSFK [N12F] | 2.96
FSEIRETSAKVHWMPPPSRADSFK [N12H] | 2.71
FSEIRETSAKVRWMPPPSRADSFK [N12R] | 2.62
FSIIRETSAKVNWMPPPSRADSFK [E3I] | 2.03

Variant | protein stability index
FSRIRETSAKVNWMPPPSRADSFK [E3R] | 3.13
FSNIRETSAKVNWMPPPSRADSFK [E3N] | 3.2
FSPIRETSAKVNWMPPPSRADSFK [E3P] | 2.52
FSQIRETSAKVNWMPPPSRADSFK [E3Q] | 3.13
FSSIRETSAKVNWMPPPSRADSFK [E3S] | 3.09
FSGIRETSAKVNWMPPPSRADSFK [E3G] | 2.34
FSWIRETSAKVNWMPPPSRADSFK [E3W] | 2.6
FSEIRETWAKVNWMPPPSRADSFK [S8W] | 2.1
FSEIRETAAKVNWMPPPSRADSFK [S8A] | 3.5
FSEIRETTAKVNWMPPPSRADSFK [S8T] | 3.63
FSEIRETPAKVNWMPPPSRADSFK [S8P] | 3.3
FSEIRETYAKVNWMPPPSRADSFK [S8Y] | 2.95
FSEIRETCAKVNWMPPPSRADSFK [S8C] | 3.95
FSEIRETMAKVNWMPPPSRADSFK [S8M] | 3.15
FSEIRETNAKVNWMPPPSRADSFK [S8N] | 3.73
FSEIRETSAKVNWMPPPSRADEFK [S22E] | 3.69
FSEIRETSAKVNWMPPPSRADTFK [S22T] | 3.26
FSEIRETSAKVNWMPPPSRADQFK [S22Q] | 3.42
FSEIRETSAKVNWMPPPSRADHFK [S22H] | 3.27
FSEIRETSAKVNWMPPPSRADVFK [S22V] | 2.94
FSEIRETSAKVNWMPPPSRADWFK [S22W] | 2.62
FSEIRETSAKVNWMPPPSRADYFK [S22Y] | 3.32
